± gives the uncertainty stated by the source.
Assay: self-splicing fitness, log relative to wild type (ln ratio); higher = more splicing; Tetrahymena group I intron in knt gene, E. coli kanamycin selection, DiMSum; sequences stand for … in CUCUCU…GGAGGGAAAAGUUAUCAGGCAUGCACCUGGUAGCUAGUCUUUAAACCAAUAGAUUGCAUCGGUUUAAAAGGCAAGACCGUCAAAUUGCGGGAAAGGGGUCAACAGCCGUUCAGUACCAAGUCUCAGGGGAAACUUUGAGAUGGCCUUGCAAAGGGUAUGGUAAUAAGCUGACGGACAUGGUCCUAACCACGCAGCCAAGUCCUAAGUCAACAGAUCUUCUGUUGAUAUGGAUGCAGUUCACAGACUAAAUGUCGGUCGGGGAAGAUGUAUUCUUCUCAUAAGAUAUAGUCGGACCUCUCCUUAAUGGGAGCUAGCGGAUGAAGUGAUGCAACACUGGAGCCGCUGGGAACUAAUUUGUAUGCGAAAGUAUAUUGAUUAGUUUUGGAGUACUCGUGGUCG
Summary of the method: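 The eight P1ex-region nucleotides of an intron in the knt kanamycin-resistance gene on pET-22b(+) were all randomised and the library put into E. coli BL21(DE3). Six replicate transformations were grown overnight at 37°C or 30°C on LB agar with or without 25 μg/mL kanamycin, together with 100 μg/mL carbenicillin, 50 μM IPTG and 0.2% rhamnose. Colonies were pooled and amplicon-sequenced on an Illumina HiSeq 2500. Fitness from DiMSum is the error-weighted combination of wild-type-normalised replicate fold changes, kanamycin over none.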

| Sequence | self-splicing fitness (ln) (30 °C) | self-splicing fitness (ln) (37 °C) |
| --- | --- | --- |
| ACCAAGCAAUAUUACGGUCU | -2.13 ± 0.08 | -0.69 ± 0.066 |
| CGUAAGCAAUAUUACGUUAU | -4.56 ± 0.26 | -1.45 ± 0.19 |
| CUCAAGCAAUAUUACGCCAG | -3.03 ± 0.28 | -0.675 ± 0.29 |
| CGACAGCAAUAUUACGUCAU | -3.41 ± 0.24 | -1.54 ± 0.14 |
| AUAUAGCAAUAUUACGAGCC | -2.89 ± 0.32 | -2.08 ± 0.37 |
| UCGAAGCAAUAUUACGGAAG | -1.18 ± 0.2 | -2.11 ± 0.38 |
| GUCUAGCAAUAUUACGCCGA | -1.65 ± 0.19 | -0.506 ± 0.15 |
| UCACAGCAAUAUUACGGUCC | -2.85 ± 0.21 | -2.2 ± 0.2 |
| CAUUAGCAAUAUUACGAUAA | -2.24 ± 0.2 | -1.75 ± 0.23 |
| AUCUAGCAAUAUUACGGAGU | -2.61 ± 0.28 | -1.52 ± 0.2 |
| UGUUAGCAAUAUUACGUAGC |  | -0.793 ± 0.22 |
| GAUAAGCAAUAUUACGCAAA | -1.8 ± 0.16 | -1.49 ± 0.2 |
| AGCUAGCAAUAUUACGUUAU | -4.39 ± 0.32 | -2.19 ± 0.17 |
| CCCCAGCAAUAUUACGAGAG | -3.91 ± 0.23 | -2.05 ± 0.17 |
| UCCAAGCAAUAUUACGCGCC | -3.47 ± 0.27 | -2.31 ± 0.32 |
| CUAGAGCAAUAUUACGUUCU | -3.79 ± 0.21 | -2.21 ± 0.22 |
| GAGCAGCAAUAUUACGUACU | -0.0719 ± 0.068 | -0.502 ± 0.085 |
| CUUUAGCAAUAUUACGGUUG | -0.918 ± 0.083 | -0.666 ± 0.099 |
| UGCGAGCAAUAUUACGAGCC |  | -1.67 ± 0.43 |
| GACUAGCAAUAUUACGCUCU | -1.87 ± 0.12 | -0.12 ± 0.14 |

| Sequence | self-splicing fitness (ln) (30 °C) | self-splicing fitness (ln) (37 °C) |
| --- | --- | --- |
| CUGAAGCAAUAUUACGUUAA | -3.39 ± 0.16 | -2.65 ± 0.28 |
| UCGUAGCAAUAUUACGACAA | -2.42 ± 0.29 | -1.5 ± 0.24 |
| GAACAGCAAUAUUACGCUGC |  | -1.69 ± 0.26 |
| GUCUAGCAAUAUUACGCCCA | -0.688 ± 0.26 | -0.356 ± 0.26 |
| ACACAGCAAUAUUACGACUC | -0.737 ± 0.063 | -0.631 ± 0.072 |
| CUUCAGCAAUAUUACGUGAG | -0.619 ± 0.031 | -0.0413 ± 0.054 |
| AACGAGCAAUAUUACGCAGU | -2.87 ± 0.23 | -2.52 ± 0.29 |
| GGUCAGCAAUAUUACGUGUU | -0.208 ± 0.047 | 0.537 ± 0.063 |
| GGAGAGCAAUAUUACGCAUA | -3.12 ± 0.26 | -2.73 ± 0.23 |
| CGACAGCAAUAUUACGUCCG | -1.31 ± 0.12 | -1.04 ± 0.12 |
| CUUCAGCAAUAUUACGUUAC | -3.35 ± 0.28 | -2.27 ± 0.27 |
| AUACAGCAAUAUUACGCUUC | -3.06 ± 0.17 | -3.25 ± 0.24 |
| GAGCAGCAAUAUUACGCGUC | -3.39 ± 0.29 | -2.8 ± 0.3 |
| CGAUAGCAAUAUUACGGGCC | -1.62 ± 0.49 | -1.8 ± 0.4 |
| UCUAAGCAAUAUUACGGUCG | -1.34 ± 0.095 | -0.375 ± 0.13 |
| UCGUAGCAAUAUUACGCGAG | -4.07 ± 0.23 | -2.43 ± 0.16 |
| AGAAAGCAAUAUUACGCCUG | -0.436 ± 0.11 | -0.62 ± 0.14 |
| CCACAGCAAUAUUACGACCA | -3.99 ± 0.36 | -1.28 ± 0.2 |
| GUCGAGCAAUAUUACGGGGU | -1.92 ± 0.16 | -1.74 ± 0.18 |

Reference: the supplement of paper PMC7877785
